Results from US20240182592A1 (CHIA TAI TIANQING PHARMACEUTICAL GROUP, published 2024).
Changes are numbered by the printed parent chain. Where two headings read alike, the source gives them in different places.

T1: human BCMA protein (human, UniProt Q02223 1-54, limits assumed)
T1 construct: also called hBCMA; Antigen BCMA
T1 sequence (looked up): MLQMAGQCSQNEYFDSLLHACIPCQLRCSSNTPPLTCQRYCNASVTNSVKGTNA

T2: human BCMA on cells (human, UniProt Q02223 1-184)
T2 sequence (looked up): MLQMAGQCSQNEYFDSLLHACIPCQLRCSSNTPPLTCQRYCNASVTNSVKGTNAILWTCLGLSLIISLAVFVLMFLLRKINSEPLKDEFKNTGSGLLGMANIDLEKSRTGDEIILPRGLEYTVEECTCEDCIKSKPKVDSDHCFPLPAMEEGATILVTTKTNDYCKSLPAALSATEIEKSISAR

B1: 1A11-V1 (antibody, human IgG1, V domains shown)
VH: QVQLVESGGGLVQPGGSLRLSCAASGFTFNSACMGWFRQAPGKGREGVSRIETGYGGTVYADSVKGRFTISRDNSKNTVYLQMNSLRAEDTAVYYCAAKRSWCTPTWWHELDYNYWGQGTQVTVSS
notes: Humanized VHH fused to human IgG1 Fc; also called humanized antibody 1A11-V1
B2: 1A11-V2 (antibody, human IgG1, V domains shown)
VH: B1 VH with G44E, R87K
notes: Humanized VHH fused to human IgG1 Fc; also called humanized antibody 1A11-V2
B3: 1A10-V1 (antibody, human IgG1, V domains shown)
VH: QVQLVESGGGLVQPGGSLRLSCAASGYSSNVACMAWYRQAPGKGLEWVATIVADFGTTNYAASVKGRFTISQDNSKNTVYLQMNSLRAEDTAVYYCAATQRGGIDWCDEINYWGQGTLVTVSS
notes: Humanized VHH fused to human IgG1 Fc; also called humanized antibody 1A10-V1
B4: 1A10-V2 (antibody, human IgG1, V domains shown)
VH: B3 VH with G44E, L45R, A49S
notes: Humanized VHH fused to human IgG1 Fc; also called humanized antibody 1A10-V2
B5: anti-BCMA/anti-CD3 multispecific antibody PC1 (bispecific antibody, human IgG1)
chain 1: QVQLVESGGGLVQPGGSLRLSCAASGYSSNVACMAWYRQAPGKGLEWVATIVADFGTTNYAASVKGRFTISQDNSKNTVYLQMNSLRAEDTAVYYCAATQRGGIDWCDEINYWGQGTLVTVSSGGGGSGGGGSQVQLVESGGGLVQPGGSLRLSCAASGFTFNSACMGWFRQAPGKGREGVSRIETGYGGTVYADSVKGRFTISRDNSKNTVYLQMNSLRAEDTAVYYCAAKRSWCTPTWWHELDYNYWGQGTQVTVSSGEPKSSDKTHTCPPCPAPEAAGGPSVFLFPPKPKDTLMISRTPEVTCVVVDVSHEDPEVKFNWYVDGVEVHNAKTKPREEQYNSTYRVVSVLTVLHQDWLNGKEYKCKVSNKALAAPIEKTISKAKGQPREPQVCTLPPSREEMTKNQVSLSCAVKGFYPSDIAVEWESNGQPENNYKTTPPVLDSDGSFFLVSKLTVDKSRWQQGNVFSCSVMHEALHNHYTQKSLSLSPGK
chain 2: ELVVTQEPSLTTSPGGTVTLTCRSSTGAVTTSNYANWVQQKPGQAPRGLIGGTNKRAPGTPARFSGSLLGGKAALTITGVQPEDEAEYYCALWYSNLWVFGGGTKLTVLGGGGSGGGGSGGGGSEVQLVESGGGLVQPGGSLRLSCAASGFTFNTYAMNWVRQAPGKGLEWVARIRSKYNNYATYYADSVKDRFTISRDDSKNTAYLQMNNLKTEDTAMYYCVRHGNFGNSYVSWFAYWGQGTLVTVSSGEPKSSDKTHTCPPCPAPEAAGGPSVFLFPPKPKDTLMISRTPEVTCVVVDVSHEDPEVKFNWYVDGVEVHNAKTKPREEQYNSTYRVVSVLTVLHQDWLNGKEYKCKVSNKALAAPIEKTISKAKGQPREPQVYTLPPCREEMTKNQVSLWCLVKGFYPSDIAVEWESNGQPENNYKTTPPVLDSDGSFFLYSKLTVDKSRWQQGNVFSCSVMHEALHNRFTQKSLSLSPGK
notes: Trivalent; two chains; human IgG1 knobs-into-holes Fc
B6: anti-BCMA/anti-CD3 bispecific control antibody Benchmark (bispecific antibody, human IgG1, kappa, L234A L235A)
heavy 1: not shown
light 1: not shown
heavy 2: not shown
light 2: EVQLLESGGGLVQPGGSLRLSCAASGFTFSTYAMNWVRQAPGKGLEWVSRIRSKYNNYATYYADSVKGRFTISRDDSKNTLYLQMNSLRAEDTAVYYCVRHGNFGNSYVSWFAYWGQGTLVTVSSASVAAPSVFIFPPSDEQLKSGTASVVCLLNNFYPREAKVQWKVDNALQSGNSQESVTEQDSKDSTYSLSSTLTLSKADYEKHKVYACEVTHQGLSSPVTKSFNRGEC
notes: Control from Celgene (US20190263920A1): two anti-BCMA Fabs and one anti-CD3 Fab; also called Celgene BM; celgene BM

What was measured:
human BCMA protein [1] = target: T1, human BCMA protein; assay: SPR (Biacore T200), antibody captured by anti-hIgG, human BCMA as analyte, 1:1 model
Method: The affinity of the test antibody for human BCMA protein was determined by Biacore T200 (GE) as follows:
(§1) The response signals were detected in real time using Biacore software, and association and dissociation curves were obtained. The buffer used in the experiment was Biacore universal buffer (137 mM NaCl, 2.7 mM KCl, 10 mM Na₂HPO₄.12H₂O, 1.8 mM KH₂PO₄, 0.05% surfactant P-20 (w/v), pH 7.4). […] The flow rate in the flow cell was at 50 μL/min, the association was performed for 240 s, the dissociation was performed for 1400 s, the regeneration was performed using 3 M MgCl₂ (GE) for 60 s, and the baseline was stable. Results were obtained by calculation according to the affinity and kinetics 1:1 binding mode in biacore evaluation software.

human BCMA on cells [2] = target: T2, human BCMA on cells; assay: cell-based or functional assay
human BCMA on cells [3] = target: T2, human BCMA on cells; assay: cell-based or functional assay; remark: listed apart in the source
human BCMA on cells [4] = target: T2, human BCMA on cells; assay: cell-based or functional assay; remark: listed apart in the source
human BCMA on cells [5] = target: T2, human BCMA on cells; assay: flow cytometry, MM1S cells
Method: (§2) NCI-H929 cells (BCMA+++), MM1S cells (BCMA++), and RPMI-8226 cells (BCMA+) in the logarithmic growth phase were taken, adjusted to a cell density of 5×10⁶-10×10⁶ cells/mL using RPMI medium (Hyclon, catalog No. SH30809.01) containing 2% FBS (fetal bovine serum), respectively, and seeded in a 96-well U-bottom cell culture plate (Costar, catalog No. 3799) at 50 μL per well. The test antibodies at different concentrations were prepared using the medium described above. […] The antibodies at different concentrations were added to the 96-well cell culture plate described above at 50 μL per well, mixed well and incubated at 4° C. for 1 h. The cells were washed with pre-cooled running buffer (MACS, catalog No. 130-091-221), and the supernatant was discarded. Pre-cooled fluorescent labeled goat anti-human IgG antibodies (Jackson, catalog No. 109-116-170) were added, and the cells were resuspended at 100 μL per well, mixed well and incubated at 4° C. for 30 min. After washing, 100 μL of pre-cooled running buffer was added to resuspend the cells. The cells were mixed well and collected while flowing on an Attune™ NxT flow cytometer, and the data was analyzed using Graphpad Prism5 software. FIGS. 7-9 and Table 11 show the binding ability of the anti-BCMA/anti-CD3 multispecific antibodies to NCI-H929 cells (BCMA+++), MM1S cells (BCMA++), and RPMI-8226 cells (BCMA+).

human BCMA on cells [6] = target: T2, human BCMA on cells; assay: flow cytometry, NCI-H929 cells
Method: as §2

T cell surface CD3 = target: T3, T cell surface CD3 (human, UniProt P07766 23-207); assay: flow cytometry, human CD3+ T cells
T3 construct: whole, on cells; also called CD3^+ T cells
T3 sequence (P07766 23-207): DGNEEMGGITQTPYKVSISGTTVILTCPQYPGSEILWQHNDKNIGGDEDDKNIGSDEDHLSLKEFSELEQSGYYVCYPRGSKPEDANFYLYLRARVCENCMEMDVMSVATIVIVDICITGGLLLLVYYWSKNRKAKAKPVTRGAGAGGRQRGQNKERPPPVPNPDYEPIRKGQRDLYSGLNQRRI
Method: Human PBMC cells were sorted for CD3⁺ T cells using CD3 magnetic beads (Miltenyi, catalog No. 130-097-043): the cryopreserved PBMCs were thawed, and washed by centrifugation twice for counting. Running buffer (MACS, catalog No. 130-091-221) was added in a cell-to-buffer ratio of 10⁷:80 μL, CD3 beads were added in a cell-to-bead ratio of 10⁷:20 μL, and the mixture was mixed well and incubated at 4° C. for 15 min. The cells were washed with buffer in a cell-to-buffer ratio of 10⁷:1-2 mL. After centrifugation, the supernatant was discarded, and 500 μL of buffer was added to resuspend the cell pellet. The LS sorting column (Miltenyi, catalog No. 130-042-401) was placed on the MidiMACS Starting Kit (LS) magnetic rack (Miltenyi, catalog No. 130-091-051). After rinsing, the cell suspension was added and washed thrice. The LS sorting column was removed from the magnetic rack and placed on a clean centrifuge tube and 5 mL buffer was added to collect the sorted CD3⁺ T cells. After counting, the CD3⁺ T cells were adjusted to a cell density of 5×10⁶-10×10⁶ cells/mL using RPMI medium (Hyclone, catalog No. SH30809.01) containing 2% FBS (fetal bovine serum) and seeded in a 96-well U-bottom cell culture plate (Costar, catalog No. 3799) at 50 μL per well. The test antibodies at different concentrations were prepared using the medium described above. […] The antibodies at different concentrations were added to the 96-well cell culture plate described above at 50 μL per well, mixed well and incubated at 4° C. for 1 h. The cells were washed with pre-cooled running buffer (MACS, catalog No. 130-091-221), and the supernatant was discarded. Pre-cooled fluorescent labeled goat anti-human IgG antibodies (Jackson, catalog No. 109-116-170) were added, and the cells were resuspended at 100 μL per well, mixed well and incubated at 4° C. for 30 min. After washing, 100 μL of pre-cooled running buffer was added to resuspend the cells.

human BCMA protein [7] = target: T1, human BCMA protein; assay: SPR (Biacore T200), antibody captured by anti-hIgG, human BCMA as analyte, 1:1 model; remark: listed apart in the source
Method: (§3) The affinity of the test antibody for human CD3e or human BCMA protein was determined by Biacore T200 (GE) as follows:
as §1, with “KH₂PO₄.” for “KH₂PO₄,”, “MgCl” for “MgCl₂”

[8] = target: T4, human CD3e (Acro, Cat. No. CDE-H5223) (human, UniProt P07766 23-126); assay: SPR (Biacore T200), antibody captured by anti-hIgG, human CD3e as analyte, 1:1 model
T4 construct: also called human CD3e protein; hCD3e
T4 sequence (P07766 23-126 limits assumed): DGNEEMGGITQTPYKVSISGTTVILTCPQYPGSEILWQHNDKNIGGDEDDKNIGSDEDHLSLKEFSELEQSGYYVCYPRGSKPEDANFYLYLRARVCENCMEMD
Method: as §3
as §1, with “KH₂PO₄.” for “KH₂PO₄,”, “MgCl” for “MgCl₂”

Row | Binder | Kd (human BCMA protein [1]) | Lysis EC50, NCI-H929 cells with human PBMCs (E:T 10:1, 24 h, LDH release) (human BCMA on cells [2]) | Maximum lysis rate, NCI-H929 cells with human PBMCs (human BCMA on cells [2]) | Lysis EC50, MM1S cells with human PBMCs (E:T 10:1, 24 h, LDH release) (human BCMA on cells [3]) | Maximum lysis rate, MM1S cells with human PBMCs (human BCMA on cells [3]) | Lysis EC50, RPMI-8226 cells with human PBMCs (E:T 10:1, 24 h, LDH release) (human BCMA on cells [4]) | Maximum lysis rate, RPMI-8226 cells with human PBMCs (human BCMA on cells [4]) | EC50 (human BCMA on cells [5]) | Top(MFI) (human BCMA on cells [5]) | EC50 (human BCMA on cells [6]) | Top(MFI) (human BCMA on cells [6]) | EC50 (T cell surface CD3) | Top(MFI) (T cell surface CD3) | Kd (human BCMA protein [7]) | Kd [8]
1 | B1 | 5.05 nM |  |  |  |  |  |  |  |  |  |  |  |  |  | 
2 | B2 | 4.37 nM |  |  |  |  |  |  |  |  |  |  |  |  |  | 
3 | B3 | 0.337 nM |  |  |  |  |  |  |  |  |  |  |  |  |  | 
4 | B4 | 1.31 nM |  |  |  |  |  |  |  |  |  |  |  |  |  | 
5 | B5 |  | 0.0674 nM | 36% | 0.0084 nM | 26% | 0.007 nM | 29% | 0.35 nM | 100000 MFI | 1.26 nM | 226000 MFI | 485 nM | 92900 MFI | 0.0396 nM | 1.43 nM
6 | B6 |  | 0.0444 nM | 41% | 0.0847 nM | 23% | 0.271 nM | 29% | 0.381 nM | 71400 MFI | 0.821 nM | 166000 MFI | 18.1 nM | 93500 MFI | 0.821 nM | 1.6 nM
